Numbered stars: 1 amine (or outer) side, 2 acyl side, 3 side chain; on linkers, the order of the positions; unused ones are H or OH. Bridge positions count the residues as written; N and C are the ends. Side chains are listed from the residue outwards. Ends that are not written are not given here. * marks the point of attachment. C20 diacid = O=C(O)CCCCCCCCCCCCCCCCCCC(=O)*; γGlu = O=C(O)[C@H](CCC(=O)[*:2])N[*:1]
T1: rat calcitonin receptor (rat, UniProt P32214 25-516)
T1 construct: whole, on cells; Membranes prepared from transiently transfected BHK tk'ts 13 cells (Assay VIII); also called rCTR; rCT
T1 sequence (looked up): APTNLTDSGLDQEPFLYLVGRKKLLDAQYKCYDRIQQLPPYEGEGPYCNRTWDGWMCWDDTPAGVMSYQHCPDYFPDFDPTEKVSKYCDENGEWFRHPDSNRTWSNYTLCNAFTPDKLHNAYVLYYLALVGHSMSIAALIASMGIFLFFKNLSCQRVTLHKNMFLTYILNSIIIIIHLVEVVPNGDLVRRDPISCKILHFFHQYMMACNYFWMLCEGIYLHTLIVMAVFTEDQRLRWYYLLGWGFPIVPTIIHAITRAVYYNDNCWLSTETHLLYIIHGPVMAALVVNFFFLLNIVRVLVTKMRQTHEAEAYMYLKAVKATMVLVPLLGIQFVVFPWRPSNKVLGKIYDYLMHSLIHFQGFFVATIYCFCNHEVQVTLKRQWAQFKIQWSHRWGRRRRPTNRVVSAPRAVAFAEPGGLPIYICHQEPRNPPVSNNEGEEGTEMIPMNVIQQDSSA

T2: human calcitonin receptor (human, UniProt P30988 25-474)
T2 construct: whole, on cells; Membranes prepared from a stably transfected BHK cell line (Assay VII); also called hCTR; hCT
T2 sequence (looked up): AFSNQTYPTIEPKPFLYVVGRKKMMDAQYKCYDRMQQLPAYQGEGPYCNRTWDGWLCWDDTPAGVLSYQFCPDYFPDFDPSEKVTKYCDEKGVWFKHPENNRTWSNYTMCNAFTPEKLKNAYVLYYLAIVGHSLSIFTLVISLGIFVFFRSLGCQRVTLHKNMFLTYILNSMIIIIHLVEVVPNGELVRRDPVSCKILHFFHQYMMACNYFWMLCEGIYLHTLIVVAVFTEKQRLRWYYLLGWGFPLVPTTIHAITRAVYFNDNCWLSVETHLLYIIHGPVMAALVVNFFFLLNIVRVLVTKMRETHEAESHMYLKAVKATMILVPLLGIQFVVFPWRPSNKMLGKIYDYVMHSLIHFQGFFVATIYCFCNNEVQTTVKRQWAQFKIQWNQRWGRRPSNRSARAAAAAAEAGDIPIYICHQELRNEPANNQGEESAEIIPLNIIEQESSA

T3: rat amylin receptor (rat calcitonin receptor + rat RAMP 3) (rat, UniProt P32214 25-516; Q9JJ73 23-147)
T3 construct: whole, on cells; Membranes prepared from transiently transfected BHK tk'ts 13 cells (Assay VI); also called rAmylin-R; rAmylin
T3 sequence (looked up) 1: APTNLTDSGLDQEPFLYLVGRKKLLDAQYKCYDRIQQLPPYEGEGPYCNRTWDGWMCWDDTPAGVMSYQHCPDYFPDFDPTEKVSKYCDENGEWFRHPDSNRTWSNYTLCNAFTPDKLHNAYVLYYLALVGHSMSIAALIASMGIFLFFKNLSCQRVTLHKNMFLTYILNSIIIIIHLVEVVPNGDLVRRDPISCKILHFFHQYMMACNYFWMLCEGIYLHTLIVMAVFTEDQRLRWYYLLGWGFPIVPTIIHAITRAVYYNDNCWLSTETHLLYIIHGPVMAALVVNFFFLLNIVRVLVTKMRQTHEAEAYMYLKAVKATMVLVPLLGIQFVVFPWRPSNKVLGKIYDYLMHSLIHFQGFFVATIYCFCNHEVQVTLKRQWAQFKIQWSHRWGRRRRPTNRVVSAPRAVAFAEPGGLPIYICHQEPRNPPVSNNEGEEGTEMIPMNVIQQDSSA
T3 sequence (looked up) 2: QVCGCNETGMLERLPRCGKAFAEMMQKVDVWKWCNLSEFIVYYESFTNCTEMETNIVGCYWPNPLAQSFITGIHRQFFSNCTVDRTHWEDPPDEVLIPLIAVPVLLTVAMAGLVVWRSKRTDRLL

B1: N^ε1-[(4S)-4-carboxy-4-[[(4S)-4-carboxy-4-(19-carboxynonadecanoylamino)butanoyl]amino]butanoyl]-[Glu14,Arg17,Pro21,Pro27,Arg35]-h-amylin (peptide)
peptide: K([γGlu-γGlu-C20 diacid])CNTATCATQRLAEFLRHSSPNFGAIPSSTNVGSRTY-NH2
modifications: disulfide 2-7; N-terminus assumed
SMILES: CC[C@H](C)[C@H](NC(=O)[C@H](C)NC(=O)CNC(=O)[C@H](Cc1ccccc1)NC(=O)[C@H](CC(N)=O)NC(=O)[C@@H]1CCCN1C(=O)[C@H](CO)NC(=O)[C@H](CO)NC(=O)[C@H](Cc1c[nH]cn1)NC(=O)[C@H](CCCNC(=N)N)NC(=O)[C@H](CC(C)C)NC(=O)[C@H](Cc1ccccc1)NC(=O)[C@H](CCC(=O)O)NC(=O)[C@H](C)NC(=O)[C@H](CC(C)C)NC(=O)[C@H](CCCNC(=N)N)NC(=O)[C@H](CCC(N)=O)NC(=O)[C@@H](NC(=O)[C@H](C)NC(=O)[C@@H]1CSSC[C@H](NC(=O)[C@@H](N)CCCCNC(=O)CC[C@H](NC(=O)CC[C@H](NC(=O)CCCCCCCCCCCCCCCCCCC(=O)O)C(=O)O)C(=O)O)C(=O)N[C@@H](CC(N)=O)C(=O)N[C@@H]([C@@H](C)O)C(=O)N[C@@H](C)C(=O)N[C@@H]([C@@H](C)O)C(=O)N1)[C@@H](C)O)C(=O)N1CCC[C@H]1C(=O)N[C@@H](CO)C(=O)N[C@@H](CO)C(=O)N[C@H](C(=O)N[C@@H](CC(N)=O)C(=O)N[C@H](C(=O)NCC(=O)N[C@@H](CO)C(=O)N[C@@H](CCCNC(=N)N)C(=O)N[C@H](C(=O)N[C@@H](Cc1ccc(O)cc1)C(N)=O)[C@@H](C)O)C(C)C)[C@@H](C)O
notes: Analogue of human amylin; also called compound 89
B2: N^ε1-[(4S)-4-carboxy-4-[[(4S)-4-carboxy-4-(19-carboxynonadecanoylamino)butanoyl]amino]butanoyl]-[Glu14,Arg17,Pro21,Pro27,His34]-h-amylin (peptide)
peptide: K([γGlu-γGlu-C20 diacid])CNTATCATQRLAEFLRHSSPNFGAIPSSTNVGHNTY-NH2
modifications: disulfide 2-7; N-terminus assumed
SMILES: CC[C@H](C)[C@H](NC(=O)[C@H](C)NC(=O)CNC(=O)[C@H](Cc1ccccc1)NC(=O)[C@H](CC(N)=O)NC(=O)[C@@H]1CCCN1C(=O)[C@H](CO)NC(=O)[C@H](CO)NC(=O)[C@H](Cc1c[nH]cn1)NC(=O)[C@H](CCCNC(=N)N)NC(=O)[C@H](CC(C)C)NC(=O)[C@H](Cc1ccccc1)NC(=O)[C@H](CCC(=O)O)NC(=O)[C@H](C)NC(=O)[C@H](CC(C)C)NC(=O)[C@H](CCCNC(=N)N)NC(=O)[C@H](CCC(N)=O)NC(=O)[C@@H](NC(=O)[C@H](C)NC(=O)[C@@H]1CSSC[C@H](NC(=O)[C@@H](N)CCCCNC(=O)CC[C@H](NC(=O)CC[C@H](NC(=O)CCCCCCCCCCCCCCCCCCC(=O)O)C(=O)O)C(=O)O)C(=O)N[C@@H](CC(N)=O)C(=O)N[C@@H]([C@@H](C)O)C(=O)N[C@@H](C)C(=O)N[C@@H]([C@@H](C)O)C(=O)N1)[C@@H](C)O)C(=O)N1CCC[C@H]1C(=O)N[C@@H](CO)C(=O)N[C@@H](CO)C(=O)N[C@H](C(=O)N[C@@H](CC(N)=O)C(=O)N[C@H](C(=O)NCC(=O)N[C@@H](Cc1c[nH]cn1)C(=O)N[C@@H](CC(N)=O)C(=O)N[C@H](C(=O)N[C@@H](Cc1ccc(O)cc1)C(N)=O)[C@@H](C)O)C(C)C)[C@@H](C)O
notes: Analogue of human amylin; also called compound 87
B3: N^ε1-[(4S)-4-carboxy-4-(19-carboxynonadecanoylamino)butanoyl]-[His14,Arg17,Pro21,Pro27]-h-amylin (peptide)
peptide: K([γGlu-C20 diacid])CNTATCATQRLAHFLRHSSPNFGAIPSSTNVGSNTY-NH2
modifications: disulfide 2-7; N-terminus assumed
SMILES: CC[C@H](C)[C@H](NC(=O)[C@H](C)NC(=O)CNC(=O)[C@H](Cc1ccccc1)NC(=O)[C@H](CC(N)=O)NC(=O)[C@@H]1CCCN1C(=O)[C@H](CO)NC(=O)[C@H](CO)NC(=O)[C@H](Cc1c[nH]cn1)NC(=O)[C@H](CCCNC(=N)N)NC(=O)[C@H](CC(C)C)NC(=O)[C@H](Cc1ccccc1)NC(=O)[C@H](Cc1c[nH]cn1)NC(=O)[C@H](C)NC(=O)[C@H](CC(C)C)NC(=O)[C@H](CCCNC(=N)N)NC(=O)[C@H](CCC(N)=O)NC(=O)[C@@H](NC(=O)[C@H](C)NC(=O)[C@@H]1CSSC[C@H](NC(=O)[C@@H](N)CCCCNC(=O)CC[C@H](NC(=O)CCCCCCCCCCCCCCCCCCC(=O)O)C(=O)O)C(=O)N[C@@H](CC(N)=O)C(=O)N[C@@H]([C@@H](C)O)C(=O)N[C@@H](C)C(=O)N[C@@H]([C@@H](C)O)C(=O)N1)[C@@H](C)O)C(=O)N1CCC[C@H]1C(=O)N[C@@H](CO)C(=O)N[C@@H](CO)C(=O)N[C@H](C(=O)N[C@@H](CC(N)=O)C(=O)N[C@H](C(=O)NCC(=O)N[C@@H](CO)C(=O)N[C@@H](CC(N)=O)C(=O)N[C@H](C(=O)N[C@@H](Cc1ccc(O)cc1)C(N)=O)[C@@H](C)O)C(C)C)[C@@H](C)O
notes: Analogue of human amylin; also called compound 70

Legend:
rat calcitonin receptor [1] = biological target: T1, rat calcitonin receptor; test: ratio of binding IC50s: rat calcitonin receptor / rat amylin receptor (reference)
[2] = biological target: T2, human calcitonin receptor; test: ratio of binding IC50s: human calcitonin receptor / human amylin receptor (reference)
Summary of the method: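 Competition binding by SPA with cell membranes (35 ng/μL) and SPA beads in 50 mM Hepes pH 7.4 with 1 mM CaCl2, 5 mM MgCl2, 0.1% OA and 0.02% Tween20. Incubated 120 min at 25 °C with shaking, then counted.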

rat calcitonin receptor [3] = biological target: T1, rat calcitonin receptor; test: SPA competition vs 125I-calcitonin, membranes of BHK cells with rat calcitonin receptor (Assay VIII)
[4] = biological target: T3, rat amylin receptor (rat calcitonin …); test: SPA competition vs 125I-rat amylin, membranes of BHK cells with rat calcitonin receptor + rat RAMP3 (Assay VI)

Ratio rCT/rAmylin binding (rat calcitonin receptor [1]) | Ratio hCT/hAmylin binding [2] | IC50 (rat calcitonin receptor [3]) [nM] | IC50 [4] [nM] | Binder
48.8 | 28 | 115 | 2.37 | B1
45.6 | 35.6 | 94.5 | 2.07 | B2
96.5 | 60.8 | 34.2 | 0.355 | B3

— patent publication US20140087995A1 (published 2014)
